Relative cleavage activity and binding signal (relative rate) data for two substances are collected here from patent publication US5698421.

Positions count from the first letter of the chain named.

Data set [1] has as its target T1, aI2-encoded protein P714T P714T (Saccharomyces cerevisiae) (UniProt P03876).
T1 sequence: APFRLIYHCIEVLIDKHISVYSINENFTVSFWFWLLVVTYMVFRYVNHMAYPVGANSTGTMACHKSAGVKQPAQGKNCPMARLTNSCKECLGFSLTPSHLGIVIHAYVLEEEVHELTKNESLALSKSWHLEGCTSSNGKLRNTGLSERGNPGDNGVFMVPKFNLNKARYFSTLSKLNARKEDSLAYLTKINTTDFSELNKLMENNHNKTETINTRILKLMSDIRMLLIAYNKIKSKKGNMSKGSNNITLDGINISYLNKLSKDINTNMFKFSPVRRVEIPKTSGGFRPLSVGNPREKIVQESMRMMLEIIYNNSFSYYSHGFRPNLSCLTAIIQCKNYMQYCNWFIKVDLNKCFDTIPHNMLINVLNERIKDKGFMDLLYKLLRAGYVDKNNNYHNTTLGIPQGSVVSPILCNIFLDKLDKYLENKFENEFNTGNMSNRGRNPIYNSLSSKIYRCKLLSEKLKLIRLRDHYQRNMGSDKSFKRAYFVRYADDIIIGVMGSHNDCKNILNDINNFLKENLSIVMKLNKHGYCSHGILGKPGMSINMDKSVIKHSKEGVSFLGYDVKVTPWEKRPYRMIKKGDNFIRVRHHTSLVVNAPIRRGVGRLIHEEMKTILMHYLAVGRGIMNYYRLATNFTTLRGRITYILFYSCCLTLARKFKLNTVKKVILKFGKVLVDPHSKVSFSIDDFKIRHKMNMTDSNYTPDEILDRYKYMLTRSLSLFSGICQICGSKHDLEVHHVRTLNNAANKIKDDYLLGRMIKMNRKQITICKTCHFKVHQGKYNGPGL
Description: cleavage_in_vitro. Particulars: relative to Example 1 RNP.

Data set [2] has as its target T2, aI2-encoded protein (wild-type, 62 kDa), aI2 RNP particle (Saccharomyces cerevisiae) (UniProt P03876).
T2 sequence: T1 sequence with T714P
Description: cleavage_in_vitro. As to conditions: 20 mM Mg.

As for “excised aI2 RNA, strain-specific mutated ; pE2E3-derived substrate, E2-E3 target”, the values for the relative cleavage activity in data set [1] (antisense strand) and in data set [1] (sense strand) were 6% and 25%, respectively.
In data set [2], “excised aI2 intron RNA ; pE2E3 142 nt RNA substrate” came in with a binding signal (relative rate) of 1.
